Experimental data as given in patent US20180214548A1 (SHANGHAI YUNYI HEALTHCARE AND TECHNOLOGY, published 2018).

T1: B7-1 (human, UniProt P33681 35-242)
T1 sequence (looked up): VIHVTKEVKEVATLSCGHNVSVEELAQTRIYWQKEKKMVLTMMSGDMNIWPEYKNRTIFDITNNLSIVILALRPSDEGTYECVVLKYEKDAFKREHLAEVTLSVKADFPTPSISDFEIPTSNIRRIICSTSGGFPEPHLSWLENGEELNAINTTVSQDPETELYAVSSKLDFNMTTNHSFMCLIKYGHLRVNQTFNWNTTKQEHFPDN

T2: ICOS (human, UniProt Q9Y6W8 21-140, limits assumed)
T2 sequence (looked up): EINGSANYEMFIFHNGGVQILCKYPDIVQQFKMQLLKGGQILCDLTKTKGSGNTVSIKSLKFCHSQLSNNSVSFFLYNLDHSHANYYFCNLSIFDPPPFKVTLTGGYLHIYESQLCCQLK

T3: CTLA4 (human, UniProt P16410 37-162, limits assumed)
T3 sequence (looked up): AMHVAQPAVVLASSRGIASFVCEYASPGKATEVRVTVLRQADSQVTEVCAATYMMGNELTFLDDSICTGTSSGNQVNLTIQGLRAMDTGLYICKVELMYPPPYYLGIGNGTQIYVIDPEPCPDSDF

B1: chimeric anti-PD-1 antibody 21G8F11 (antibody, V domains shown)
VH: EVQLLESGGGLAQPGGSLRLSCAASGFSFNTYLMHWVRQAPGKGLEWVSAISGGGGNTYYADSVKGRFTISRDNSKNTLYLQMNSLRAEDTAVYYCAKENRIPVAPFDYWGQGTLVTVSS
VL: DIQMTQSPSTLSASVGDRVTITCRASQSISTWLAWYQQKPGKAPKLLIYKASSLESGVPSRFSGSGSGTEFTLTISSLQPDDLATYYCQQYNSFSWTFGQGTKVEIK
notes: Purified from hybridoma of Harbour H2L2 mice: human variable regions, rat constant regions
B2: chimeric anti-PD-1 antibody 76G5B3 (antibody, V domains shown)
VH: QVQLVESGGGVVQPGRSLRLSCAASGFTFSDYGFHWVRQAPGKGLEWVAVIWYDGSNEYYTDSVKGRFTISRDNSKNTLYLQMNSLRAEDTAMYFCVVNPFDYWGQGTLVTVSS
VL: DIQMTQSPSSLSAFVGDRVTITCRASQGINHYLAWYQQKPGKAPNLLILAASTLLSGVPSRFGGRGSGTDFTLIISSLQPEDVATYYCQKYDSAPYTFGQGTKLEIK
notes: as for B1
B3: chimeric anti-PD-1 antibody 32B5C7 (antibody, V domains shown)
VH: EVQLLESGGGLVQPGGSLRLSCAASGFTFSSYAMSWVRQAPGKGLEWVSTISGSGGTTYYADSVKGRFTISRDNSKNTLYLQMNSLRAEDTAVYYCTLTGDPDYWGQGTLVTVSS
VL: EIVLTQSPATLSLSPGERATLSCRASQSVSSYLAWYQQKPGQAPRLLIYDASKRATGIPARFSGSGSGTDFTLTISSLEPEDFAVYYCQQRNNWPLTFGGGTKVEIK
notes: as for B1

These binders were tested against T4, human PD-1^ECD-hFc protein (Immunogen A) (human, UniProt Q15116 25-167) (assay: ELISA, coated human PD-1ECD-hFc; antibody 1 nM).
T4 construct: Biotinylated for the Octet assay; also called PD-1-hFc; hPD-1^ECD-hFc; not shown: human IgG Fc fragment (hFc)
Experimental: (§1) 100 uL of the diluted recombinant proteins were added to each well of 96-well plate. The plates were sealed with plastic film and incubated at 4° C. overnight. The plates were washed twice with wash buffer (PBS+0.01% (v/v) Tween20), and incubated with blocking buffer (PBS+0.01% (v/v) Tween20+1% (w/w) BSA) at room temperature for 2 hours. The blocking buffer was aspirated away, and 100 uL of purified anti-PD-1 antibodies were added to each well and incubated for 2 hours at 37° C. The plates were washed three times with wash buffer (PBS+0.01% (v/v) Tween20). HRP-conjugated secondary antibody (Sigma) was added to each well and incubated for 2 hours at 37° C. After the plates were washed three times with wash buffer, 100 uL TMB substrate was added to each well and incubated for 30 minutes at room temperature. 100 uL stop solution (0.1N HCl) was added to each well to stop the reaction. The absorbance at 450 nm was measured with an ELISA plate reader (384plus SpectraMax, Molecular Devices).

T4 sequence (Q15116 25-167): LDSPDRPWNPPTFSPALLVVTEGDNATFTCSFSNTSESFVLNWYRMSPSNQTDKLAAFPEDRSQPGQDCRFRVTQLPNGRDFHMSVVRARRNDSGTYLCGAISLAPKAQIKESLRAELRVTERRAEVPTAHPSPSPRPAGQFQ

| Binder | OD450 nm |
| --- | --- |
| B1 | 2.83 |
| B2 | 3.07 |
| B3 | 3.02 |

What follows are binders tested against T5, cyno PD-1^ECD-hFc protein (cyno monkey, UniProt B0LAJ3 25-167) (assay: ELISA, coated cyno PD-1ECD-hFc; antibody 100 nM).
T5 construct: Prepared by the method for Immunogen A; also called Cyno Monkey PD-1^ECD-hFc; cyno monkey PD-1-hFc; not shown: human IgG Fc fragment (hFc) and its junction to the ECD
Experimental: as §1

T5 sequence (B0LAJ3 entry or part of it limits assumed): as the sequence (Q15116 25-167) above, with D2E, P10A, V19L, T35A, Q75R counted along it

| Binder | OD450 nm |
| --- | --- |
| B1 | 2.61 |
| B2 | 1.89 |
| B3 | 1.66 |

The binders below were run against T4, human PD-1^ECD-hFc protein (Immunogen A) (assay: ELISA, coated human PD-1ECD-hFc; antibody 0.1 nM).
Experimental: as §1

| Binder | OD450 nm |
| --- | --- |
| B1 | 1.77 |
| B2 | 2.43 |
| B3 | 2.11 |

Each binder was assayed against T5, cyno PD-1^ECD-hFc protein (assay: ELISA, coated cyno PD-1ECD-hFc; antibody 0.01 nM).
Experimental: as §1

| Binder | OD450 nm |
| --- | --- |
| B1 | 0.27 |
| B2 | 0.14 |
| B3 | 0.1 |

What follows are binders tested against T6, full length human PD-1 on cells (human, UniProt Q15116 25-288) (assay: flow cytometry, CHO-K1-hPD-1 cells; antibody 10 nM).
T6 construct: Also used here for PD-1 on human T cells/PBMC; also called CHO-K1-hPD-1; hPD-1
Source text: (§2) CHO-K1 cells were stably transfected with pIRES plasmid containing the nucleic acid sequence encoding full length human PD-1 (see Example 2, step 2) to generate CHO-K1 cells stably expressing human PD-1 (herein referred to as CHO-K1-hPD-1 cells). Other CHO-K1 were stably transfected with pIRES plasmid containing the nucleic acid sequence encoding full length cyno PD-1 to generate CHO-K1 cells stably expressing cyno PD-1 (herein referred to as CHO-K1-cPD-1 cells). CHO-K1-hPD-1 and CHO-K1-cPD-1 cells were cultured and expanded in T-75 culture flasks to 90% confluence. The culture media was aspirated, and the cells were washed twice with HBSS (Hanks Balanced Salt Solution, Invitrogen). The cells were treated with enzyme-free cell dissociation solution (Versene solution, Invitrogen) and collected. The cells were then washed twice with HBSS, cell counts were determined, and cells were resuspended with HBSS at 2×10⁶ cells/mL. Goat serum was added to the cell suspension to a final concentration of 1%, and the cells were blocked for 30 minutes on ice and then washed twice with HBSS. The cells were collected after centrifugation and resuspended in FACS buffer (HBSS+1% BSA, v/v) at 2×10⁶ cells/mL. 100 uL of the cell suspension were then added to each well of 96-well plate. 100 uL of purified anti-PD-1 antibodies from Example 2 were added to each well of the 96-well plate and incubated for 2 hours on ice. […] The samples were washed three times with FACS buffer, and 100 uL fixation buffer (4% paraformaldehyde v/v) were added to each well and incubated for 10 minutes. The cells were then washed twice with FACS buffer and resuspended in 100 uL FACS buffer. The mean fluorescence intensity (MFI) was determined using FACS Calibur (BD), and the results are shown in FIGS. 7-8 and in Tables 10-11.

T6 sequence (Q15116 25-288 limits assumed): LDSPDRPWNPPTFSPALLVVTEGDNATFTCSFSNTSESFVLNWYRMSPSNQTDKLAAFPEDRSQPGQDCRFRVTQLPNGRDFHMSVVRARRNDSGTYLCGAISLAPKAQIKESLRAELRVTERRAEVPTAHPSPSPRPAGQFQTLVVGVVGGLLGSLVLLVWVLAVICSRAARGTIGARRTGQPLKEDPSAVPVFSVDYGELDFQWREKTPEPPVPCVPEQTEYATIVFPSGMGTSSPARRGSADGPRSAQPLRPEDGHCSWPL

| Binder | Mean fluorescence intensity |
| --- | --- |
| B1 | 696 |
| B2 | 435 |
| B3 | 156 |

The binders below were run against T6, full length human PD-1 on cells (assay: flow cytometry, CHO-K1-hPD-1 cells; antibody 100 nM).
Source text: as §2

| Binder | Mean fluorescence intensity |
| --- | --- |
| B1 | 661 |
| B2 | 443 |
| B3 | 253 |

These binders were tested against CD28 (human, UniProt P10747 19-152) (assay: ELISA, coated protein 1 ug/mL; antibody concentration not stated).
Experimental: as §1

CD28, sequence (P10747 19-152 limits assumed): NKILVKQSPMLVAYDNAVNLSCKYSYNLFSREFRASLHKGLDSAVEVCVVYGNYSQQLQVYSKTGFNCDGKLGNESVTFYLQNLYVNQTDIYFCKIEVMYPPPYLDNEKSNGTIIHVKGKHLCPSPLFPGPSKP

| Binder | OD450 nm |
| --- | --- |
| B1 | 0.144 |
| B2 | 0.061 |
| B3 | 0.062 |

The binders below were run against T1, B7-1 in the same assay as above.
Experimental: as §1

| Binder | OD450 nm |
| --- | --- |
| B1 | 0.154 |
| B2 | 0.271 |
| B3 | 0.36 |

What follows are binders tested against T2, ICOS in the same assay as above.
Experimental: as §1

| Binder | OD450 nm |
| --- | --- |
| B1 | 0.128 |
| B2 | 0.173 |
| B3 | 0.483 |

What follows are binders tested against T3, CTLA4 in the same assay as above.
Experimental: as §1

| Binder | OD450 nm |
| --- | --- |
| B1 | 0.091 |
| B2 | 0.135 |
| B3 | 0.172 |

These binders were tested against T4, human PD-1^ECD-hFc protein (Immunogen A) in the same assay as above.
Experimental: as §1

| Binder | OD450 nm |
| --- | --- |
| B1 | 2.25 |
| B2 | 2.76 |
| B3 | 2.69 |
